# Assay results: patent US20260116991A1 (HAINAN SIMCERE ZAIMING PHARMACEUTICAL, published 2026)
# Changes are numbered by the printed parent chain.
# B1: F1.136.7 (antibody, human IgG1, kappa, V domains shown)
# VH: EVQLQQSGPVMVKPGPSVKISCQTSGFTFTDYYIHWVKQSHGKSLEWIGLVFPYDGGTNYNQKFKDKATLTLDTSSSTAYMELNSLTSEDSAVYYCARAGGFSYALNYWGQGTSVTVSS
# VL: DIQMTQSPSSLSASLGGKVTITCKASQDINNYIAWYQHKPGKGPRLLIHFTSTLQPGIPSRFSGSGSGRDYSFSISNLEPEDIATYYCLQYDNLLLTFGAGTKLELKR
# notes: Human-murine chimeric antibody
# B2: F1.145.22 (antibody, human IgG1, kappa, V domains shown)
# VH: QVQLQQSGTDLARPGASVKLSCKASGYTFTSFGISWVKQRTGQGLEWIGEIYPRSGSPYYNEKFTGKATLTADKSSSTAYMELRSLTSEDSAVYFCAKDFGSSYVFDYWGQGTALTVSS
# VL: DIQMTQSPASLSASVGETVTITCRASENIYSYLTWYQQKQGKSPQLLVYNAKTLAEGVPSRFSGSGSGTQFSLKINSLQPEDFGTYYCQHHYGTPPTFGTGTKLDLKR
# notes: as for B1
# B3: F2.55.11 (antibody, human IgG1, kappa, V domains shown)
# VH: EVKLVESGGGLVKPGGSLKLSCAASGLTFSTCTMSWVRQTPAKRLEWVATISSGGGNTYYPDSVKGRFTISRDNARNTLYLQMSSLRSEDTAMYYCVRLYYDGSPYAMDYWGQGTSVTVSS
# VL: DIQMTQTTSSLSASLGDRVTISCRASQDISNHLNWYQQKPDGTVKLLIYYTSRLHSGVPSRFSGSGSGTDYSLTISNLEQEDIATYFCQQDSKPPPTFGSGTKLEIKR
# notes: as for B1
# B4: F1.118.4 (antibody, human IgG1, kappa, V domains shown)
# VH: QVQLQQSGAELAKPGASVKLSCKASGYSFTSYWIHWVKQRPGQGLEWIGYINPSSGYTKYNQKFKDKATLTADKSSSTAYMQLSSLTYEDSAVYYCARFGSSSFYFDYWGQGTTLTVSS
# VL: DIVLTQSPASLAVSLGQRATISCRASQSVSSSSYSYMHWYQQKPGQPPKLLIKYASNLDSGVPARFSGSGSGTDFTLNIHPVEEEDTATYYCQHSWEIPAFGGGTKLEIKR
# notes: as for B1
# B5: F3.54.12 (antibody, human IgG1, kappa, V domains shown)
# VH: QVQLQQSGAELVRPGASVKLSCKASGYTFTDYEMHWVKQTPVHGLEWIGAIDPETGNTAYIQKFKGKATLTTDKSSSTAYMELRSLTSEDSAVYYCTRFYSYSHWGQGTTLTVSS
# VL: DVVMTQTPLSLPVSLGDQASISCRSSQSLVHSNGNTYLHWYLQKPGQSPKLLIYKVSNRFSGVPDRFSGSSSGTDFTLKISRVEAEDLGVYFCSQNTHVPPTFGGGTKLEIKR
# notes: as for B1
# B6: F1.120.16 (antibody, human IgG1, kappa, V domains shown)
# VH: EFQLQQSGPELVKPGASVKISCKASGYSFTDYNMNWVKQSNGKSLEWIGLIHPKFSVTSYNRKFKGKATLTVDQSSSTAYMQLNSLTSEDSAVYYCARWAGDYFDYWGQGTTLTVSS
# VL: DIVLTQSPATLSVTPGDSVSLSCRASQSISNNLHWYQQKSHESPRLLIKYASQSISGIPSRFSGSGSGTDFTLTINSVETEDFGMYFCQQSNSWPQTFGGGTKLEIKR
# notes: as for B1
# B7: F1.115.8 (antibody, human IgG1, kappa, V domains shown)
# VH: EVQLQQSGPELVKPGASVKMSCKASGYTFTEYYMHWVKQSHGKSLEWIGYIYPNNGGNGYNQKFKGKATLTVDKSSSTAYMGLRSLTSEDSAVYYCVRGYYSNWYFDVWGTGTTVTVSS
# VL: DVLMTQTPLSLPVSLGDQASISCRSSQSIVHSNGKTYLEWYLQKPGQSPKLLIYKVSNRFSGVPDRFSGSGSGTDFTLKISRVEAEDLGVYYCFQGSHVPFTFGSGTKLEIKR
# notes: as for B1
# B8: F2.154.1 (antibody, human IgG1, kappa, V domains shown)
# VH: QVQLQQSGAELVRPGASVKLSCKASGYRFTDYEMHWVKQTPVHGLEWIGTIDPETGNTAYTQKFMDKATLTADKSSSTAYMELRSLTSEDSAVYYCTRGYSFTYWGQGTLATVSA
# VL: B7 VL with S28N, K35N, E39Q, Y54F, S105T
# notes: as for B1
# B9: F3.38.7 (antibody, human IgG1, kappa, V domains shown)
# VH: QVQLQQSGAELVRPGASVKLSCKASGYTFTDYEIHWVKQTPVLGLEWIGAIDPKTGNTAYNQKFMGKATLTADKSSTTAYMDLRSLTSEDSAVYYCTRYFSFAYWGQGTLVTVSA
# VL: B7 VL with S28T, I29F, K35N, E39Q, F101Y
# notes: as for B1
# Biological target: T1, monkey GPC3-His protein (monkey)
# T1 construct: Bought recombinant protein; also called monkey GPC3 protein
# Experiment: SPR, antibody captured on Protein A chip, monkey GPC3-His analyte;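 also: run at 25 °C with 240 s association and up to 600 s dissociation, double-referenced, kinetics fitted to a 1:1 Langmuir binding model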
Binder,Kd [pM],koff [s⁻¹],kon [M⁻¹ s⁻¹]
B1,183,2.88e-05,158000
B2,525,0.000164,311000
B3,5240,0.000434,82800
B4,226,0.000102,453000
B5,2170,0.00117,541000
B6,4440,0.000639,144000
B7,1050,0.00145,1.38e+06
B8,706,0.000504,713000
B9,725,0.000386,532000

# Biological target: T2, monkey GPC3 on HEK293T-monkey GPC3 cells (monkey)
# T2 construct: whole, on cells
# Experiment: FACS on HEK293T-monkey GPC3 cells;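 also: flow cytometry binding of test antibodies to the cells, read as mean fluorescence intensity, with half-maximal concentration taken from fitted curves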
# Experimental: The desired cells were expanded to a logarithmic growth phase in a T-75 cell culture flask, the medium was removed by pipetting, and the cells were washed twice with a PBS buffer, and digested with trypsin. Then a complete medium was added to stop the digestion, and the cells were blown into a single cell suspension. After counting, the cells were centrifuged, and the cell pellet was resuspended with an FACS buffer (PBS+2% fetal bovine serum) to 2×10⁶ cells/mL. The cell resuspension solution was added to a 96-well FACS reaction plate at 50 μl/well, and a chimeric antibody sample to be tested was added at 50 μl/well for incubation at 4° C. for 1 h. […] After the plate was centrifuged and washed 3 times with a PBS buffer, 100 μl of the resulting solution was assayed and analyzed by FACS (FACS Canto™, purchased from BD Biosciences). Data analysis was performed by software (FlowJo) to obtain the mean fluorescence intensity (MFI) of the cells. Then, analysis was performed by software (GraphPad Prism8), data were fitted, and EC₅₀ values were calculated.
Binder,EC50 [pM],Max MFI [MFI]
B1,1940,6480
B2,690,6050
B3,310,3530
B4,320,6220
B5,720,115000
B6,250,5540
B7,330,6390
B8,410,12400
B9,850,110000

# Biological target: T1, monkey GPC3-His protein
# Experiment: ELISA, monkey GPC3-His coated;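 also: Plate-coated antigen at 1 µg/mL, antibody binding 2 h at 37 °C, detected with HRP-labeled secondary antibody and TMB, absorbance at 450 nm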
# Experimental: The specific method is described as follows: The antigen protein was diluted with PBS to a final concentration of 1 μg/mL, and the diluent was added to a 96-well ELISA plate at 50 μL/well. The plate was sealed with a plastic film and incubated at 4° C. overnight, washed twice with PBS the next day, and a blocking solution [PBS+2% (w/w) BSA] was added for blocking at room temperature for 2 h. […] After incubation at 37° C. for 2 h, the plate was washed 3 times with PBS. A horseradish peroxidase (HRP)-labeled secondary antibody (purchased from Merck, Cat. No. AP113P) was added for incubation at 37° C. for 1 h, and the plate was washed 5 times with PBS. A TMB substrate was added at 50 μL/well for incubation at room temperature for 10 min, then a stop solution (1.0M HCl) was added at 50 μL/well. An ELISA plate reader (Multimode Plate Reader, EnSight, purchased from Perkin Elmer) was used to read OD_{450 nm} values, with results as shown in Table 4 to Table 6, FIG. 1A, FIG. 1B, and FIG. 1C.
Binder,OD450 at 0.0001 nM [OD450],OD450 at 0.001 nM [OD450],OD450 at 0.01 nM [OD450],OD450 at 0.1 nM [OD450],OD450 at 1 nM [OD450],OD450 at 10 nM [OD450],OD450 at 100 nM [OD450]
B1,0.05,0.05,0.1,0.62,1.33,1.96,1.96
B2,0.05,0.07,0.25,1.23,2.17,2.39,2.4
B3,0.05,0.1,0.49,1.76,2.3,2.54,2.23
B4,0.05,0.08,0.28,1.43,2.21,2.32,2.14
B5,0.08,0.1,0.41,1.57,2.21,2.32,2.76
B6,0.07,0.07,0.26,1.11,1.91,2.21,2.14
B7,0.05,0.07,0.27,1.33,2.14,2.36,2.26
B8,0.05,0.1,0.46,1.69,2.38,2.49,2.24
B9,0.06,0.1,0.42,1.69,2.37,2.58,3.01

# Biological target: T3, human GPC3-His protein (human, UniProt P51654 25-559)
# T3 construct: also called human GPC3 protein; not shown: His tag
# Experiment: SPR, antibody captured on Protein A chip, human GPC3-His analyte;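 also: measured at 25 °C flow cell, human GPC3-His injected at five concentrations up to 200 nM, 240 s association, up to 600 s dissociation, double-referenced, fitted to Langmuir 1:1 model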
Binder,Kd [pM],koff [s⁻¹],kon [M⁻¹ s⁻¹]
B1,837,7.03e-05,84100
B2,754,0.000164,218000
B3,7770,0.000443,57000
B4,472,0.000118,251000
B5,4090,0.00112,275000
B6,8030,0.000629,78400
B7,1400,0.00115,820000
B8,1210,0.000563,466000
B9,997,0.000361,362000
